Laboratory results from the supplement of paper PMC6757056.
± gives the standard deviation of the averaged measurements.

B1: library; a variant is named by its letters at N, in order (parent)
chain: GCUGUCACCGGUGUAUUACCCUAGUGGUCGACCGGUCUGAUGAGUCUNNNNNNAGACGAAACAGC

Tests used:
hypoxanthine [1] = variants of: B1; assay: normalized RNA/DNA level with ligand (relative to sTRSVctl = 100) (log10 (% of sTRSVctl)); ligand: hypoxanthine (xanthine aptamer); higher = less ribozyme self-cleavage, higher mRNA level; conditions: ligand concentration (+) RNA-Seq: 5 mM, HEK293T, reporter: mCherry (pCS4076), ligand present: yes
Summary of the method: (§1)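 HEK293T cells were transfected with library plasmids carrying ribozyme switches linked to an mCherry reporter, or an eGFP reporter in some ligand experiments, at 4 µg per well of a 6-well plate, with any ligand added 1 h beforehand. After 72 h, total RNA was extracted with EDTA, reverse-transcribed, amplified, barcoded and sequenced. RNA level was defined as RNA reads over DNA reads, normalized to a spiked-in non-cleaving sequence or to the top-ranked sequences. That value was multiplied by 100 and converted to log10, the top set was 25 sequences, and only sequences with ≥100 DNA reads were retained.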

hypoxanthine [2] = variants of: B1; assay: normalized RNA/DNA level without ligand (relative to sTRSVctl = 100) (log10 (% of sTRSVctl)); ligand: hypoxanthine (xanthine aptamer); higher = less ribozyme self-cleavage, higher mRNA level; conditions: HEK293T, reporter: mCherry (pCS4076), ligand present: no
Summary of the method: as §1

| Variant | normalized RNA/DNA level with ligand (log10) (hypoxanthine [1]) | normalized RNA/DNA level without ligand (log10) (hypoxanthine [2]) |
| --- | --- | --- |
| AUUUUA | 1.9 ± 0.029 | 1.83 ± 0.037 |
| AUUUUC | 1.97 ± 0.056 | 1.925 ± 0.003 |
| GUUGUC | 1.943 ± 0.0065 | 1.9 ± 0.052 |
| UUUUUA | 1.99 ± 0.064 | 1.93 ± 0.045 |
| UUUUUC | 2.02 ± 0.043 | 1.99 ± 0.02 |
| UUUUUG | 1.98 ± 0.025 | 1.83 ± 0.064 |
| UUUUUU | 1.973 ± 0.01 | 1.973 ± 0.017 |
| CUUGGC | 1.95 ± 0.069 | 1.9 ± 0.089 |
| CUUGGU | 1.98 ± 0.051 | 1.95 ± 0.04 |
| CUUGGG | 1.866 ± 0.013 | 1.587 ± 0.013 |
| GUUUUA | 1.93 ± 0.025 | 1.865 ± 0.0019 |
| UUUUGC | 1.94 ± 0.048 | 1.889 ± 0.0056 |
| UUUUGU | 1.94 ± 0.037 | 1.842 ± 0.011 |
| UUUUGG | 1.898 ± 0.0019 | 1.738 ± 0.007 |
| AUUUAC | 1.927 ± 0.011 | 1.847 ± 0.0068 |
| AUUUAG | 1.85 ± 0.033 | 1.55 ± 0.053 |

| Variant | normalized RNA/DNA level with ligand (log10) (hypoxanthine [1]) | normalized RNA/DNA level without ligand (log10) (hypoxanthine [2]) |
| --- | --- | --- |
| AUUUAU | 1.9 ± 0.039 | 1.907 ± 0.019 |
| CUUUCG | 1.97 ± 0.064 | 1.903 ± 0.014 |
| CUUUCC | 1.91 ± 0.05 | 1.96 ± 0.039 |
| CUUUCU | 1.93 ± 0.048 | 1.88 ± 0.038 |
| GUUUCA | 1.98 ± 0.024 | 1.9949 ± 0.0014 |
| GUUUCG | 1.9698 ± 0.0015 | 2.01 ± 0.098 |
| GUUUCU | 2 ± 0.063 | 2.02 ± 0.027 |
| AUUGUC | 1.952 ± 0.016 | 1.969 ± 0.015 |
| AUUGUU | 1.9265 ± 0.0005 | 1.8319 ± 0.00072 |
| AUUGUA | 1.89 ± 0.021 | 1.78 ± 0.022 |
| GUUUAC | 1.96 ± 0.04 | 1.88 ± 0.028 |
| GUUUAU | 1.96 ± 0.05 | 1.83 ± 0.042 |
| UUUGUA | 1.93 ± 0.024 | 1.87 ± 0.089 |
| UUUGUU | 1.952 ± 0.018 | 1.87 ± 0.027 |
| UUUGUC | 2.0103 ± 0.0014 | 1.99 ± 0.036 |
| CUUUUG | 1.95 ± 0.042 | 1.89 ± 0.078 |
